For data set [1], the target named is T1, Cdc13 (Saccharomyces cerevisiae, UniProt P32797 1-924).
T1 sequence: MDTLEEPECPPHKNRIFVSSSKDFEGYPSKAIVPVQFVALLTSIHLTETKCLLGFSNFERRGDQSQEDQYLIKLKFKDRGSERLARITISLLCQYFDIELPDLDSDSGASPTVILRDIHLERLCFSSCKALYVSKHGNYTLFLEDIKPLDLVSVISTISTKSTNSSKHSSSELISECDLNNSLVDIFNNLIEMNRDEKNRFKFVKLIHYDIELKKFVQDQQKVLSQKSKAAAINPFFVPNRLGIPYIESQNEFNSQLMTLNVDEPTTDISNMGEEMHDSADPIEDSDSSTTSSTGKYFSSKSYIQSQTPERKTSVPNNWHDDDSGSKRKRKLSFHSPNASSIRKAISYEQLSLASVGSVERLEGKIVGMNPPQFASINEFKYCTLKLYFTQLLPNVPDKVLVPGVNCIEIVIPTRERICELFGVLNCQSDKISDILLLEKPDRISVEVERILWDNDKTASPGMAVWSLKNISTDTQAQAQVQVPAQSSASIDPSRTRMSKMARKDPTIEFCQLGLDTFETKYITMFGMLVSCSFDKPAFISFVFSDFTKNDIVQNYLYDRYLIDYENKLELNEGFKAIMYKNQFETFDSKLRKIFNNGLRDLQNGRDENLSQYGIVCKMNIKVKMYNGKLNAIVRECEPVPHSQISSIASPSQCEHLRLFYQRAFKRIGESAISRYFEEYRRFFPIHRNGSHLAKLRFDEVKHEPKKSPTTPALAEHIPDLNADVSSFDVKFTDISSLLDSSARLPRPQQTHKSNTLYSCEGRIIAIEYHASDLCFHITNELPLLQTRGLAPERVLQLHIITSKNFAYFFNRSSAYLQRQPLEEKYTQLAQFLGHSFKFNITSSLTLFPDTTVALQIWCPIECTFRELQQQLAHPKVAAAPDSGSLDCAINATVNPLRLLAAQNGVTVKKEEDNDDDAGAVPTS
Nature of the data set: EMSA. On the technique in general: A gel shift assay detects complexes by their altered migration in electrophoresis.

In data set [2] the target is T2, Cy5-Sub1 (Sub1-Cys) (Saccharomyces cerevisiae, UniProt P54000 1-292+=C, internal_change).
T2 sequence: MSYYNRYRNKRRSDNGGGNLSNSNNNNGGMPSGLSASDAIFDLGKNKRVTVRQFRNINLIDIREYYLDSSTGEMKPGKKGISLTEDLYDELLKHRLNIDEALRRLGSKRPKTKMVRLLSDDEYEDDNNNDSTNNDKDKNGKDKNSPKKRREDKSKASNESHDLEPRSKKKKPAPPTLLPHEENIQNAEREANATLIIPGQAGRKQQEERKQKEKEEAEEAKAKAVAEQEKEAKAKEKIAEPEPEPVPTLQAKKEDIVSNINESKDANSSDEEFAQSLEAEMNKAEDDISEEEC
As to the kind of experiment: stopped-flow FRET dissociation.

For data set [3], the target named is T1, Cdc13. Nature of the data set: EMSA. This is another data set of the same source.
Data set [4] has as its target T1, Cdc13. Nature of the data set: EMSA. This is another data set of the same source.
For data set [5], the target named is T1, Cdc13. As to the kind of experiment: EMSA. The source holds these as a separate data set.
Data set [6] addresses T3, S. cerevisiae Pif1 helicase (S. cerevisiae, UniProt P07271 46-859).
T3 sequence (looked up): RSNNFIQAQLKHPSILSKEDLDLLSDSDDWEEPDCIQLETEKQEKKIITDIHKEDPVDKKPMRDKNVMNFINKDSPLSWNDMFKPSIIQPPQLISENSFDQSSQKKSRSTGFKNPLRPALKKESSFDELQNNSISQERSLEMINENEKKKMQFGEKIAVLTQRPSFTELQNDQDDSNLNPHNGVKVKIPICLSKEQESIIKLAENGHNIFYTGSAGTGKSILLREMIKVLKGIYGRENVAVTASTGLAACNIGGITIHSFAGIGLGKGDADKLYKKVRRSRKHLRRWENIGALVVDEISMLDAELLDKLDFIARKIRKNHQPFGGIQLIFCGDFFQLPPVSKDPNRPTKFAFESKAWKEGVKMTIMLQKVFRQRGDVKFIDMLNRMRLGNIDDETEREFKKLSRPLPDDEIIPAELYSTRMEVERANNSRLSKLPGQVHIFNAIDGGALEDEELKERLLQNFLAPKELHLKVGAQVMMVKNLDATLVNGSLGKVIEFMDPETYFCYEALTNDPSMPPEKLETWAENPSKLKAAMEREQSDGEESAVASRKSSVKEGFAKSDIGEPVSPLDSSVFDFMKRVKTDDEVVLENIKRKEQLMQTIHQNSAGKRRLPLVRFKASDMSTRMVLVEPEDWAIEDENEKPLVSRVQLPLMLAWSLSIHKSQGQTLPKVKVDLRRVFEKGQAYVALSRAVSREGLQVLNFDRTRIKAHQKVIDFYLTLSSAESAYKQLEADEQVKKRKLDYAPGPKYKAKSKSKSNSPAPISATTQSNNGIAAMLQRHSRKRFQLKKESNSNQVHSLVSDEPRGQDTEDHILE
As to the kind of experiment: fluorescence polarisation. (Fluorescence polarisation rises when a labelled molecule tumbles more slowly, as on binding a larger partner.)

For data set [7], the target named is T2, Cy5-Sub1 (Sub1-Cys). As to the kind of experiment: filter binding.
A further data set concerns the target T4, Sub1 (Saccharomyces cerevisiae, UniProt P54000 1-292).
T4 sequence: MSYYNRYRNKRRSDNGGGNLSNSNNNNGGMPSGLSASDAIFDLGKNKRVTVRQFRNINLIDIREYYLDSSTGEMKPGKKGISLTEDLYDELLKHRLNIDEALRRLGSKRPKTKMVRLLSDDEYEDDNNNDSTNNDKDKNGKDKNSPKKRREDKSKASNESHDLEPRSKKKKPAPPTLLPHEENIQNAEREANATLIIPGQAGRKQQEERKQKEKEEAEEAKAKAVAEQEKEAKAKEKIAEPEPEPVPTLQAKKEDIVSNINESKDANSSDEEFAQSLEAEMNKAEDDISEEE
As to the kind of experiment: filter binding.

Seven molecules from paper PMC10841737 (Biochemistry, 2023) can be followed below.

Read-outs that look alike come from different tables or passages of the source.

B1: 12 nt Mixed seq (ssDNA)
DNA: CGCTGATGTCGC
As for B1, the “apparent K (half saturation)” value with Cdc13 [1] amounted to 124 ± 8.8 nM.

B2: Cy3-G4 DNA (structured_DNA)
DNA: TTTTTTTTTTTTTTGAGGGTGGGTAGGGTGGGT
Take B2: the binding result with Cy5-Sub1 (Sub1-Cys) [2] is reported as “binds”.

B3: Tel11 (G1C) (ssDNA)
DNA: CTGTGGGTGTG
Turning to B3, in the data set with Cdc13 [3], the “apparent K (half saturation)” value came to 150 ± 14.7 nM.

B4: Tel11 telomere seq (ssDNA)
DNA: GTGTGGGTGTG
On to B4, for which the “apparent K (half saturation)” value with Cdc13 [4] worked out at 15.3 ± 0.9 nM.

B5: Tel11 (G7C/G9C) (ssDNA)
DNA: GTGTGGCTCTG
Turning to B5, in the data set with Cdc13 [5], the “apparent K (half saturation)” value was 96.7 ± 3 nM.

B6: Cy5-labeled Sub1 (Sub1-Cys variant labeled with Cy5-maleimide) (natural protein, yeast (S. cerevisiae), UniProt P54000 1-292, looked up)
chain: MSYYNRYRNKRRSDNGGGNLSNSNNNNGGMPSGLSASDAIFDLGKNKRVTVRQFRNINLIDIREYYLDSSTGEMKPGKKGISLTEDLYDELLKHRLNIDEALRRLGSKRPKTKMVRLLSDDEYEDDNNNDSTNNDKDKNGKDKNSPKKRREDKSKASNESHDLEPRSKKKKPAPPTLLPHEENIQNAEREANATLIIPGQAGRKQQEERKQKEKEEAEEAKAKAVAEQEKEAKAKEKIAEPEPEPVPTLQAKKEDIVSNINESKDANSSDEEFAQSLEAEMNKAEDDISEEEC
modifications: Cy5 (maleimide) on the cysteine added at the C-terminal end; one molecule of Cy5 dye per protein
B6: binding in data set [6] was characterised by a dissociation constant (Kd) of 53 nM.

B7: G4DNA (structured_DNA)
DNA: TTTTTTTTTTTTTTTGAGGGTGGGTAGGGTGGGTAA
With B7, the Kd turned out to be 2.9 ± 1.3 nM with Cy5-Sub1 (Sub1-Cys) [7] and 0.86 ± 0.18 nM with Sub1.

Usually Kd stands for the constant that tells how readily two partners part at equilibrium. A high value points to weaker binding.
